Test [1] deals with T1, Recombinant human VEGF165 (Sino Biological, 11066-HNAH) (human, UniProt P15692-4 27-191).
T1 construct: Bought reagent
Briefly: SPR (Biacore 8K), antibody captured on anti-human capture CM5 chip, antigen as analyte, 1:1 model. The procedure:
(§1) Methods: Anti-Human Capture-CM5 chip was prepared according to the amino coupling method of the Human Antibody Capture Kit. The chip was balanced at room temperature for 20-30 min, and then loaded into Biacore 8K instrument. The transient transduced protein was diluted to experimental working concentration with equilibration buffer. The antigen was diluted to 50 nM with equilibration buffer, and then diluted to seven concentration gradients with a 3-fold dilution, and two zero concentrations (equilibration buffer) and one repeat concentration (usually a repeat of the lowest concentration) were set. According to the order of antibody, antigen, and regeneration, cyclical experimental analysis were performed on 10 antigen concentrations (2 zero concentrations, 7 gradient concentrations and 1 repeat concentration), wherein the antigen injection flow rate was 30 μL/min, binding time was 120 seconds, and dissociation time was 600 seconds. After the analysis was completed, the corresponding analysis program was selected to analyze the data, confirming that there was no obvious reference binding. Kinetics, 1:1 binding modle was selected to fit the data, and the kinetic related parameters Ka, Kd and KD values of human-mouse chimeric antibody and humanized antibody were obtained.
(In general: SPR reads the build-up and loss of mass on a sensor chip optically.)

Test [2] addresses T2, Recombinant human PD-L1 (Sino Biological, 10084-H08H) (human, UniProt Q9NZQ7 19-239).
T2 construct: Bought reagent
Described as above. The procedure:
as §1

For test [3], the target named is T1, Recombinant human VEGF165 (Sino …). The test can be described thus: SPR (Biacore 8K), same method as Example 2. The procedure:
as §1

Test [4] has as its target T2, Recombinant human PD-L1 (Sino …). The test can be described thus: SPR (Biacore 8K), same method as Example 2. On the procedure: as §1
Test [5] concerns the target T3, Egg white lysozyme (Sigma, L3790) (UniProt P00698 19-147).
T3 construct: Non-target molecule, amine-coupled to the CM5 chip
Briefly: SPR (Biacore 8K), same method as Example 3, lysozyme on CM5 chip. The procedure:
(§2) Methods: Series S Sensor Chip CM5 was balanced at room temperature for 20-30 min, and loaded into Biacore 8K instrument. Egg white lysozyme and soybean trypsin inhibitor 1-S type were fixed to the CM5 chip, respectively, using the Amino Coupling Kit. The injection buffer was HBS-EP+1×. 4 balance cycles were setted. The rabbit polyclonal antibody against lysozyme, the antibody against trypsin inhibitor, and the humanized monoclonal antibody were diluted to 1000 nM with equilibration buffer, and the flow rate was set as 5 μL/min, and the injection channels were 1, 2 and 3. The Flow Cells were 1 and 2. The binding time was 10 min, and the dissociation time was 15 min. The regeneration flow rate was 50 μl/min, which is regenerated first with 0.85% phosphoric acid for 60 s, and then with 50 mM sodium hydroxide for 30 s. The results of non-specific adsorption of bispecific antibody HB0025 and non-target molecules are shown in Table 3, and the sensor diagram of the detection of non-specific adsorption of bispecific antibody and non-target molecules is shown in FIG. 3.

The target in test [6] is T4, Soybean trypsin inhibitor 1-S type (Sigma, T-2327) (soybean, UniProt P01070 25-205).
T4 construct: Non-target molecule, amine-coupled to the CM5 chip
T4 sequence (looked up): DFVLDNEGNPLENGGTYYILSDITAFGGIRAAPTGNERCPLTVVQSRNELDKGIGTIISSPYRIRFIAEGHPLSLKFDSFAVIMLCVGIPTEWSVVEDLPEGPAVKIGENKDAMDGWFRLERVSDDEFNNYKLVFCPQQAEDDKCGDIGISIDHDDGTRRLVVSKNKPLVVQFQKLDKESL
Briefly: SPR (Biacore 8K), same method as Example 3, soybean trypsin inhibitor on CM5 chip. On the procedure:
as §2

T1 sequence (P15692 other isoform, or with tags, fused parts or gaps): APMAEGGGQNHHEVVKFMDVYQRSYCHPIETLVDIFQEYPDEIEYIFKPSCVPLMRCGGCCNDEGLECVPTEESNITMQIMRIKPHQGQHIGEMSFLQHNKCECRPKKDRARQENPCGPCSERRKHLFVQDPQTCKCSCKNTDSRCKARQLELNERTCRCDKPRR
T2 sequence (Q9NZQ7 19-239 limits assumed): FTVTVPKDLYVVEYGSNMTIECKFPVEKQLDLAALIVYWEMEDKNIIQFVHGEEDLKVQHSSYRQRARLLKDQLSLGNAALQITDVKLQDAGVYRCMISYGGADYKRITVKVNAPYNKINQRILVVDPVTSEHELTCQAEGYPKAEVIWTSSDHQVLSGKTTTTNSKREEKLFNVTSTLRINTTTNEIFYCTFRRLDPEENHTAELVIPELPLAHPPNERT
T3 sequence (P00698 19-147 limits assumed): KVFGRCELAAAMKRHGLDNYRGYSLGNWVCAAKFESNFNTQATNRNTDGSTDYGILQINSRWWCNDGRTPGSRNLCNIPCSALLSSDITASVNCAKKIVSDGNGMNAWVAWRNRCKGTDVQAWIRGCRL

B1: bispecific antibody HB0025 (bifunctional antibody 900387) (bispecific antibody, human IgG1, kappa, L234A L235A)
heavy: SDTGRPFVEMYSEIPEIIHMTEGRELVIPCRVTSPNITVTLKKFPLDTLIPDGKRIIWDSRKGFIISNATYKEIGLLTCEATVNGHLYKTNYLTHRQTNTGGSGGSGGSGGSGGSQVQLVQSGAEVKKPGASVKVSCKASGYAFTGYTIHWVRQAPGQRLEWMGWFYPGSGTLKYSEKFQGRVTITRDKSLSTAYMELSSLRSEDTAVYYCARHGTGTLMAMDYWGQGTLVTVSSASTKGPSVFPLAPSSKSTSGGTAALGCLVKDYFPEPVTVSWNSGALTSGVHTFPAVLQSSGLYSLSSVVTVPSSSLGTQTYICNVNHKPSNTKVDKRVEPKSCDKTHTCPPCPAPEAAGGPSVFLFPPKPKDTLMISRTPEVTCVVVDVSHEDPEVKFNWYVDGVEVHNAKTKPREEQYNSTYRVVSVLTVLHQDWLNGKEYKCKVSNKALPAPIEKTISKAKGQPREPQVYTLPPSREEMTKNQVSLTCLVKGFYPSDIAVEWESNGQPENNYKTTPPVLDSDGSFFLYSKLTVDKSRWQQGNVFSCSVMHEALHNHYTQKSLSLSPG
light: DVVMTQTPLSLSVTPGQPASISCKSSQSLANSYGNTYLSWYLHKPGQSPQLLIYGISNRFSGVPDRFSGSGSGTDFTLKISRVEAEDVGVYYCLQGTHQPPTFGQGTKLEIKRTVAAPSVFIFPPSDEQLKSGTASVVCLLNNFYPREAKVQWKVDNALQSGNSQESVTEQDSKDSTYSLSSTLTLSKADYEKHKVYACEVTHQGLSSPVTKSFNRGEC
notes: symmetrical molecule with two H and two L chains; also called HB0025-22A3/9E3-ProA-EP; HB0025-22F5/4E6-ProA-EP
In the case of B1, in test [1], the Kd (commonly a measure of binding affinity in units of concentration) is 0.0295 nM, the koff (commonly the first-order rate constant of dissociation) was found to be 0.00028 s⁻¹ and the kon (commonly a measure of how fast the partners come together) was determined as 9.5e+06 M⁻¹ s⁻¹. In test [2], the Kd was determined as 0.844 nM, the koff came to 0.000402 s⁻¹ and the kon was found to be 476000 M⁻¹ s⁻¹.

B2: bispecific antibody 900388 (bispecific antibody, human IgG1, kappa, L234A L235A)
heavy: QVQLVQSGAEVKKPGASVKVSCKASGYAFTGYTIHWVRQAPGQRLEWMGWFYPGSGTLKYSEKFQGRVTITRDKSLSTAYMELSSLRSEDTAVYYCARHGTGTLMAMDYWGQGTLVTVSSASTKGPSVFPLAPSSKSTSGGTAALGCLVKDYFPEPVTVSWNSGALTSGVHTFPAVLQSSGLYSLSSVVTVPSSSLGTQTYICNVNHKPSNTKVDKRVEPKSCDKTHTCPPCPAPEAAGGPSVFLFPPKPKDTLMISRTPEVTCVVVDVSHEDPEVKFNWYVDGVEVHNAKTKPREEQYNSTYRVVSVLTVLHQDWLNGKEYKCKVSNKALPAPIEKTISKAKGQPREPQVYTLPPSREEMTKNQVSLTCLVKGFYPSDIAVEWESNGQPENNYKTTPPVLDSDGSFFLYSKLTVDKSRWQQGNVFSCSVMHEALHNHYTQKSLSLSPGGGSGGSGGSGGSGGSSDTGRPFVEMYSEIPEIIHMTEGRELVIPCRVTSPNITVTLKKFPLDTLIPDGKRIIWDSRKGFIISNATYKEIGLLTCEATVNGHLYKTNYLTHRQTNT
light: DVVMTQTPLSLSVTPGQPASISCKSSQSLANSYGNTYLSWYLHKPGQSPQLLIYGISNRFSGVPDRFSGSGSGTDFTLKISRVEAEDVGVYYCLQGTHQPPTFGQGTKLEIKRTVAAPSVFIFPPSDEQLKSGTASVVCLLNNFYPREAKVQWKVDNALQSGNSQESVTEQDSKDSTYSLSSTLTLSKADYEKHKVYACEVTHQGLSSPVTKSFNRGEC
For B2, the Kd in test [3] was determined as 0.0398 nM; in test [4], 0.824 nM. Also, the koff in test [3] is 0.00041 s⁻¹; in test [4], 0.000522 s⁻¹. The values for the kon in test [3] and in test [4] were 1.03e+07 M⁻¹ s⁻¹ and 633000 M⁻¹ s⁻¹, respectively. For the same molecule, the binding result in test [5] and in test [6] was “no binding” each time.
